Here are results for 2 molecules from patent US20040049009A1, “Methods for improving the antagonistic/agonistic properties of peptidic antagonists/agonists of the corticotropin-releasing factor receptor (crfr)” (priority 2000, published 2004).

In test [1] the target is T1, rat CRF binding protein C-terminally fused with a His6 sequence (rat) (UniProt P24388).
T1 sequence: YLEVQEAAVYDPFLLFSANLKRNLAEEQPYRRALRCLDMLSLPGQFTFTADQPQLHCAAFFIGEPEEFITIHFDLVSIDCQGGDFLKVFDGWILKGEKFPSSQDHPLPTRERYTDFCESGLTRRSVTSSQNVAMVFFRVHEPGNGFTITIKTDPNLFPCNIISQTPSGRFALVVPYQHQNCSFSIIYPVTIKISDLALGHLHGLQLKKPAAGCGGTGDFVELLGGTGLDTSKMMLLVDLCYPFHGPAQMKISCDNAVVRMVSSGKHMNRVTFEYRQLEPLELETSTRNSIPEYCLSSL
Kind of test: SPA competition with 0.1 nM [125I-Tyr0]h/rCRF, His-tagged rCRFBP; 95% CI (45-70).

For test [2], the target named is mouse CRF receptor, type 2β (mouse) (UniProt Q60748). Kind of test: SPA competition with 0.05 nM [125I-Tyr0]Svg, HEK-293 membranes; 95% CI (0.72-1.1).
Test [3] shares this target. In words: SPA competition with 0.05 nM [125I-Tyr0]Svg, HEK-293 membranes; 95% CI (0.56-1.1).
Test [4] deals with T1, rat CRF binding protein C-terminally fused with a His6 sequence (rat). Kind of test: SPA competition with 0.1 nM [125I-Tyr0]h/rCRF, His-tagged rCRFBP; 95% CI (0.66-1.0).

Ends that are not written are not given here.

B1: sauvagine (ligand)
peptide: QGPPISIDLSLELLRKMIEIEKQEKEKQQAANNRLLLDTI
modifications: ends and bridges not checked
As to B1, the IC50 in test [1] is 57 nM; in test [2] it was 0.92 nM.

B2: [Ala^21,23Arg^22]Svg (peptide)
peptide: QGPPISIDLSLELLRKMIEIARAEKEKQQAANNRLLLDTI
modifications: ends and bridges not checked
Take B2: the figures for the IC50 in test [3] and in test [4] were 0.82 nM and 0.84 nM, respectively.

In general, IC50 refers to the midpoint of a concentration-inhibition curve. High values mean weaker potency, low ones greater potency.
